In assay [1] the target is T1, rh integrin α4β7 (R&D Systems #5397-A30) (human, UniProt P13612 34-970; P26010 20-723).
T1 construct: bought; coated on a nickel coated plate; also called immobilized α4β7; immobilized α4β7 integrin protein
The assay can be described thus: competition ELISA vs MAdCAM-1. Background: ELISA stands for enzyme-linked immunosorbent assay.

Assay [2] has as its target T2, human α4β7 integrin on cells (human, UniProt P13612 34-1032; P26010 20-798).
T2 construct: whole, on cells; also called α4β7 cell (Hu); RPMI8866 cells
Description: RPMI8866 cell adhesion to MAdCAM-1.

From patent publication US20220162261A1 (published 2022) come the findings set out here.

In general, IC50 refers to the midpoint of a concentration-inhibition curve. Read a low IC50 as inhibition by little substance.

Bridge positions count the residues as written; N and C are the ends. Square brackets hold non-standard residues; d marks the D form. Ends that are not written are not given here. * marks the point of attachment. Phe(3,4-Cl2) = N[C@@H](Cc1ccc(Cl)c(Cl)c1)C(=O)O; Phe(4-CF3) = N[C@@H](Cc1ccc(C(F)(F)F)cc1)C(=O)O; Phe(4-tBu) = CC(C)(C)c1ccc(C[C@H](N)C(=O)O)cc1; Phe(2,4-Cl2) = N[C@@H](Cc1ccc(Cl)cc1Cl)C(=O)O; Oleoyl = CCCCCCCC/C=C\CCCCCCCC(=O)*; NMeR = CN[C@@H](CCCNC(=N)N)C(=O)O; hPhe = N[C@@H](CCc1ccccc1)C(=O)O; Myristoyl = CCCCCCCCCCCCCC(=O)*; Tic = O=C(O)[C@@H]1Cc2ccccc2CN1; β3hE = N[C@@H](CCC(=O)O)CC(=O)O; Pen = CC(C)(S)[C@H](N)C(=O)O

B1: SEQ ID NO: 182 (peptide)
peptide: Ac-[Pen][NMeR]SDTL[Pen][Phe(4-tBu)][β3hE][dK]-NH2
modifications: disulfide 1-7; not fully specified (residue 10); printed as (Ac Pen N-Me-R S D T L Pen F(4-tBu) b-H-E k NH2)2 IDA Alexa-488, disulfide Pen-Pen; also: homodimer: two subunits joined by IDA linker, Alexa-488 label on the linker
Take B1: the IC50 in assay [1] is ≤ 10 nM.

B2: SEQ ID NO: 45 (peptide)
peptide: Ac-[Pen][NMeR]SDTL[Pen][hPhe]E[dK]-NH2
modifications: disulfide 1-7; not fully specified (residue 10); printed as (Ac Pen N-Me-R S D T L Pen HPhe E k NH2)2 DIG, disulfide Pen-Pen; also: dimer, two subunits joined by DIG linker
B2: the IC50 in assay [2] was > 25 nM.

B3: SEQ ID NO: 40 (peptide)
peptide: Ac-[Pen][NMeR]SDTL[Pen][hPhe][dE][dK]-NH2
modifications: disulfide 1-7; not fully specified (residue 10); printed as (Ac Pen N-Me-R S D T L Pen HPhe e k NH2)2 DIG, disulfide Pen-Pen; also: dimer, two subunits joined by DIG linker
B3: the IC50 in assay [1] was ≤ 10 nM.

B4: SEQ ID NO: 17 (peptide)
peptide: Ac-[Pen][NMeR]SDTL[Pen][Phe(3,4-Cl2)]E[dK]-NH2
modifications: disulfide 1-7
SMILES: CC(=O)N[C@@H]1C(=O)N(C)[C@@H](CCCNC(=N)N)C(=O)N[C@@H](CO)C(=O)N[C@@H](CC(=O)O)C(=O)N[C@@H]([C@@H](C)O)C(=O)N[C@@H](CC(C)C)C(=O)N[C@H](C(=O)N[C@@H](Cc2ccc(Cl)c(Cl)c2)C(=O)N[C@@H](CCC(=O)O)C(=O)N[C@H](CCCCN)C(N)=O)C(C)(C)SSC1(C)C
For the molecule B4, in assay [1], the IC50 was > 10 nM.

B5: SEQ ID NO: 180 (peptide)
peptide: Oleoyl-[Pen][NMeR]SDTL[Pen][Phe(4-tBu)][β3hE][dK]-NH2
modifications: disulfide 1-7
As to B5, the IC50 in assay [2] is > 1000 nM.

B6: SEQ ID NO: 183 (peptide)
peptide: Ac-[Pen][NMeR]SDTL[Pen][Phe(4-tBu)][β3hE][dK]-NH2
modifications: disulfide 1-7; not fully specified (residue 10); printed as (Ac Pen N-Me-R S D T L Pen F(4-Bu) b-H-E k NH2)2 IDA Alexa-647, disulfide Pen-Pen; also: homodimer: two subunits joined by IDA linker, Alexa-647 label on the linker
notes: F(4-Bu) as printed
On to B6, for which the IC50 in assay [1] is ≤ 10 nM.

B7: SEQ ID NO: 36 (peptide)
peptide: Ac-C[NMeR]SDTL[Pen]W[dK]-NH2
modifications: disulfide 1-7; not fully specified (residue 9); printed as (Ac C N-Me-R S D T L Pen W k NH2)2 PEG13, disulfide C-Pen; also: dimer, two subunits joined by PEG13 linker
Turning to B7, the half-inhibitory concentration (IC50) in assay [2] is > 50 nM.

B8: SEQ ID NO: 89 (peptide)
peptide: Ac-[Pen][NMeR]SDTLC[Tic][dE][dK]-NH2
modifications: disulfide 1-7
SMILES: CC(=O)N[C@@H]1C(=O)N(C)[C@@H](CCCNC(=N)N)C(=O)N[C@@H](CO)C(=O)N[C@@H](CC(=O)O)C(=O)N[C@@H]([C@@H](C)O)C(=O)N[C@@H](CC(C)C)C(=O)N[C@H](C(=O)N2Cc3ccccc3C[C@H]2C(=O)N[C@H](CCC(=O)O)C(=O)N[C@H](CCCCN)C(N)=O)CSSC1(C)C
Turning to B8, in assay [1], the IC50 is > 25 nM.

B9: SEQ ID NO: 19 (peptide)
peptide: Ac-[Pen][NMeR]SDTL[Pen][hPhe]E[dK]-NH2
modifications: disulfide 1-7
SMILES: CC(=O)N[C@@H]1C(=O)N(C)[C@@H](CCCNC(=N)N)C(=O)N[C@@H](CO)C(=O)N[C@@H](CC(=O)O)C(=O)N[C@@H]([C@@H](C)O)C(=O)N[C@@H](CC(C)C)C(=O)N[C@H](C(=O)N[C@@H](CCc2ccccc2)C(=O)N[C@@H](CCC(=O)O)C(=O)N[C@H](CCCCN)C(N)=O)C(C)(C)SSC1(C)C
With B9, the half-inhibitory concentration (IC50) in assay [1] was > 10 nM.

B10: SEQ ID NO: 21 (peptide)
peptide: C[NMeR]SDTL[Pen]W-NH2
modifications: disulfide 1-7; not fully specified (N-terminus); printed as PEG25 NH2 C N-Me-R S D T L Pen W NH2, disulfide C-Pen; also: N-terminal PEG25 linker, number of subunits not shown
notes: N-terminal linker printed without dimer brackets
B10: the IC50 in assay [2] is > 50 nM.

B11: SEQ ID NO: 14 (peptide)
peptide: Ac-[Pen][NMeR]SDTL[Pen][hPhe][dE][dK]-NH2
modifications: disulfide 1-7
SMILES: CC(=O)N[C@@H]1C(=O)N(C)[C@@H](CCCNC(=N)N)C(=O)N[C@@H](CO)C(=O)N[C@@H](CC(=O)O)C(=O)N[C@@H]([C@@H](C)O)C(=O)N[C@@H](CC(C)C)C(=O)N[C@H](C(=O)N[C@@H](CCc2ccccc2)C(=O)N[C@H](CCC(=O)O)C(=O)N[C@H](CCCCN)C(N)=O)C(C)(C)SSC1(C)C
In the case of B11, the IC50 in assay [1] is > 25 nM.

B12: SEQ ID NO: 46 (peptide)
peptide: Ac-[Pen][NMeR]SDDL[Pen]WE[dK]-NH2
modifications: disulfide 1-7
SMILES: CC(=O)N[C@@H]1C(=O)N(C)[C@@H](CCCNC(=N)N)C(=O)N[C@@H](CO)C(=O)N[C@@H](CC(=O)O)C(=O)N[C@@H](CC(=O)O)C(=O)N[C@@H](CC(C)C)C(=O)N[C@H](C(=O)N[C@@H](Cc2c[nH]c3ccccc23)C(=O)N[C@@H](CCC(=O)O)C(=O)N[C@H](CCCCN)C(N)=O)C(C)(C)SSC1(C)C
With B12, in assay [1], the IC50 was > 1000 nM.

B13: SEQ ID NO: 48 (peptide)
peptide: Ac-[Pen][NMeR][dD]DTL[Pen]WE[dK]-NH2
modifications: disulfide 1-7
SMILES: CC(=O)N[C@@H]1C(=O)N(C)[C@@H](CCCNC(=N)N)C(=O)N[C@H](CC(=O)O)C(=O)N[C@@H](CC(=O)O)C(=O)N[C@@H]([C@@H](C)O)C(=O)N[C@@H](CC(C)C)C(=O)N[C@H](C(=O)N[C@@H](Cc2c[nH]c3ccccc23)C(=O)N[C@@H](CCC(=O)O)C(=O)N[C@H](CCCCN)C(N)=O)C(C)(C)SSC1(C)C
B13: the concentration for half-maximal inhibition (IC50) in assay [1] was > 1000 nM.

B14: SEQ ID NO: 37 (peptide)
peptide: Ac-C[NMeR]SDTL[Pen]W[dK]-NH2
modifications: disulfide 1-7; not fully specified (residue 9); printed as (Ac C N-Me-R S D T L Pen W k NH2)2 PEG25, disulfide C-Pen; also: dimer, two subunits joined by PEG25 linker
As to B14, in assay [2], the IC50 was > 100 nM.

B15: SEQ ID NO: 16 (peptide)
peptide: Ac-[Pen][NMeR]SDTL[Pen][Phe(2,4-Cl2)]E[dK]-NH2
modifications: disulfide 1-7
SMILES: CC(=O)N[C@@H]1C(=O)N(C)[C@@H](CCCNC(=N)N)C(=O)N[C@@H](CO)C(=O)N[C@@H](CC(=O)O)C(=O)N[C@@H]([C@@H](C)O)C(=O)N[C@@H](CC(C)C)C(=O)N[C@H](C(=O)N[C@@H](Cc2ccc(Cl)cc2Cl)C(=O)N[C@@H](CCC(=O)O)C(=O)N[C@H](CCCCN)C(N)=O)C(C)(C)SSC1(C)C
On to B15, for which the IC50 in assay [1] was > 10 nM.

B16: SEQ ID NO: 190 (peptide)
peptide: Ac-[Pen][NMeR]SQIQ[Pen][Phe(4-tBu)][β3hE][dK]-NH2
modifications: disulfide 1-7; also: homodimer via IDA linker on D-Lys10 side chains
Turning to B16, in assay [2], the IC50 is > 100000 nM.

B17: SEQ ID NO: 131 (peptide)
peptide: Ac-[Pen][NMeR]SDTL[Pen][Phe(4-tBu)]E[dK]-NH2
modifications: disulfide 1-7; not fully specified (residue 10); printed as (Ac Pen N-Me-R S D T L Pen F(4tBu) E k NH2)2 DIG, disulfide Pen-Pen; also: homodimer, two subunits joined by DIG linker
Turning to B17, the IC50 in assay [1] is ≤ 10 nM.

B18: SEQ ID NO: 20 (peptide)
peptide: C[NMeR]SDTL[Pen]W-NH2
modifications: disulfide 1-7; not fully specified (N-terminus); printed as PEG13 NH2 C N-Me-R S D T L Pen W NH2, disulfide C-Pen; also: N-terminal PEG13 linker, number of subunits not shown
notes: as for B10
Turning to B18, the IC50 in assay [2] was > 50 nM.

B19: SEQ ID NO: 3 (peptide)
peptide: Ac-[Pen][NMeR]SDTL[Pen][Phe(4-CF3)][dE][dK]-NH2
modifications: disulfide 1-7; not fully specified (residue 10); printed as (Ac Pen N-Me-R S D T L Pen F(4-CF3) e k NH2)2 DIG, disulfide Pen-Pen; also: dimer, two subunits joined by DIG linker
Regarding B19, the IC50 in assay [2] was > 25 nM.

B20: SEQ ID NO: 192 (peptide)
peptide: Ac-[Pen][NMeR]SQIQ[Pen][Phe(4-tBu)][β3hE][dK]-NH2
modifications: disulfide 1-7; also: homodimer via IDA linker on D-Lys10 side chains, Alexa-647 label
Turning to B20, the IC50 in assay [2] is > 10000 nM.

B21: SEQ ID NO: 189 (peptide)
peptide: Ac-[Pen][NMeR]SQIQ[Pen][Phe(4-tBu)][β3hE][dK]-NH2
modifications: disulfide 1-7; also: homodimer via DIG linker on D-Lys10 side chains
Consider B21, for which the IC50 in assay [2] was > 10000 nM.

B22: SEQ ID NO: 181 (peptide)
peptide: Myristoyl-[Pen][NMeR]SDTL[Pen][Phe(4-tBu)][β3hE][dK]-NH2
modifications: disulfide 1-7
On to B22, for which the IC50 in assay [2] is > 1000 nM.
